The text below walks through data of the supplement of paper PMC11502859.

The data set deals with HEK293T. The data set is described as follows: median enrichment of reporter reads in eGFP-reduced (low/intermediate) vs eGFP-high sorted cells (eGFP-extension fusion abundance) (ratio); higher = stronger loss of eGFP-fusion protein abundance (more destabilising extension).
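Note: lentiviral eGFP-IRES-mCherry reporter pool sorted by FACS 96 h post-transduction, gated on mCherry-high cells, Illumina read counts normalized per million, median across four biological replicates.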

RBP1, sequence (chain, as listed by the source): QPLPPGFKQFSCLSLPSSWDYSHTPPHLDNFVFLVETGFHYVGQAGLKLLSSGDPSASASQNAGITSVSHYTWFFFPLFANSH

For QSSAQRRGSMC [FAM49A], the median enrichment is 0.176.
“QDSQLHRRLLPGLLLGRPPACPPCVSTPPARLPAGPSTPCVHTTSNLIGADVFIFLEFLFML [DDA1]”: the median enrichment came out at 7.88.
As to CCP [RUBCNL], the median enrichment was determined as 0.512.
For LVC [SYT16], the median enrichment came to 1.2.
In the case of “YYSKIKYINIYIYIYFRKKKKTNKQKNPTPVDTLIFPNEDFIYGMEWKKKQLF [BMP2]”, the median enrichment amounted to 49.
In the case of LAAHPASSHVVWEQRDSHLRGGV [RASAL3], the median enrichment was 2.07.
Regarding RYGWYSLHI [WASHC4], the median enrichment came to 8.03.
On to WQQPQG [CCNB3], for which the median enrichment was determined as 0.678.
Take RSKDNGVFFL [USP44]: the median enrichment amounted to 1.94.
The figure for SLCC [POLQ] is 0.62; for WGSEPRPSGFTCLVKAFVMISLN [KRTAP5-10] it is 10.1.
The figure for QGDL [DPYD] is 0.394; for SKWADE [PLPP5] it is 0.25; for LAWN [CLRN1] it is 0.652.
With QRKKRKTALGLAYGLRGCCC [WEE2], the median enrichment amounted to 6.66.
With YGSRRILTHRKGAHGTQVKEVLLARYGGSRL [SMYD4], the median enrichment was determined as 5.15.
The result for “YEPYSFKPYVFLCAFFPYPSSLALPFLNTAAL [UBQLN3]” reads 7.8; that for LACPFCPVGPQAHSGVTEA [TLX1], 6.73; that for QSSLSR [SCAF8], 1.11.
On to ETLNILSLIFN [POLK], for which the median enrichment turned out to be 8.07.
“LPARPHGQPVASCRPHSPGTVSCLCVRPPLPCLLRHPPPHIHTQRFDKLLVFNE [SMTN]”: the median enrichment stood at 7.46.
As to “YLEQMETPWGAGSGSPAPSQTLQCQKQQQNETQPPPTTATTRRMIQQVFLKN [GRIA1]”, the median enrichment is 2.38.
With “YICLASPPSVFSTQRRREPAVPCRREEGLLDPRLSPSALRTPCPDSLLMVGPLCSSLPVGSLSSLTWIRFGFSTSLPQRKDYS [KRT13]”, the median enrichment turned out to be 6.15.
With SDTLLWSETEDVG [PEX7], the median enrichment stood at 2.59.
On to YLL [TOR1AIP2], for which the median enrichment was 3.21.
Turning to YEKCVVCGADSGHHVDSLALPQATSPGTIFLP [BTD], the median enrichment came out at 2.26.
Turning to SGLPLPSLLEIVNPAVCAGLIVSVL [FBXO25], the median enrichment amounted to 6.93.
As to NNNNNNNNN [Asn09], the median enrichment stood at 0.367.
Turning to LNQFLGLTAM [BTN2A1], the median enrichment was determined as 12.4.
“LRAGEPHILTAPGLYPGHSRDRLVVEPGGAKKASCGPRTAAVRLPMSQAVCVVTAPLSVHLQQRQRRRLPPGRFSLFIC [ZMYND19]”: the median enrichment was 6.85.
Consider LVLRLRATPLPSACSFPGIFVSF [EPS15L1], for which the median enrichment is 18.
For the substance SVWGLAPCSPGPHCSHTLRLGPPSLLWC [TOM1], the median enrichment is 8.98.
On to “STSHAYQVAELGPLGQGAQATSSFVVTKQGSPFPFLLPYFVQRTRVIYIYICICLYPSPHLSDSALGTQLWAARGAVPCGSSC [SCAMP5]”, for which the median enrichment came out at 5.87.
The figure for “RPETECQPKESSCKTVIYCEYLHHMGSLMVNIFLQSC [TXK]” is 12.5; for LTQPRGGSLVFVLKFLVPNVFSSTFS [IL36G] it is 15.7.
QIQGHK [RILPL2]: the median enrichment was 0.367.
The figure for “LRSRRDEAASPFSASPPAQGPSGGACRTCPGTVAPQACLSCRVPMAWSLHLTDWSPLPDSHFQKLGGRDTWKTPVTSFLLRA [DPM2]” is 4.89; for LRGPSPPPMAGG [Degron KLHDC2] it is 5.1; for YFNLCNLTNFHDK [NUP107] it is 9.37.
With GSVQGFLGPSCLS [KCNA10], the median enrichment came out at 0.463.
On to “YTCGEGLSWTRPLPTASSLQVQLKPLSSGGRHVERAGRPTAAENRAGTGSSCSAFPSFGDAGSAAPKHLPAPHSTVSEDSSLL [CDC14B]”, for which the median enrichment amounted to 0.953.
As for QGVSLSLSFCIICLAECVYRLPKFTKKL [VNN2], the median enrichment was 10.5.
Consider WGPPRARRTGTELSRGRSPRQAQLV [CDS2], for which the median enrichment was determined as 11.7.
As to TTTTTT [Thr06], the median enrichment stood at 0.322.
With LILKLHPQ [BZW1], the median enrichment was determined as 4.65.
As to LLYSILWSSSSVARPLILSFAHVHPN [KCNK17], the median enrichment was 25.2.
The figure for YLDQSKCGLNLLVDQC [SLC25A3] is 13.3.
With YGPVGPAAVLHPTPLTPASCCK [WDR13], the median enrichment is 6.81.
For the substance EEEEEEEEE [Glu09], the median enrichment amounted to 0.433.
Regarding “CDARQFLDLGGLKRPPSCLLSFSVSSFLLVFFILFSFHQPSCILALQRDRDRSSAQGFSLPLFIMGGGYHPPSQSCEESGTSF [NOTCH3]”, the median enrichment was determined as 9.5.
On to AAAAAAAA [Ala08], for which the median enrichment is 7.64.
LTYLGRLGK [APBB3]: the median enrichment stood at 9.37.
Turning to “QESSPPAHQGQDTWLGADAGPDVAEDSRAGRARGGGGGGGGGRRRRSRPLPTTSRRRRGARAEEPGTGDS [C6orf223]”, the median enrichment stood at 0.3.
The figure for “ADLTPAQPPPPTSHSGLVLCLLFRTPLCPPKRQKKKKKKKSKKTSEKSAAKKWMSCNFSRDGAGGVCVPTGPGGPLRGGHAAR [PITX1]” is 10; for TTT [Thr03] it is 0.568; for “LEPWGWGRGCQLHSGTLGRWASERLLTGSGASRCQAASGPLGCPGQACEEGLRWGRQGAPGSRDHR [RPUSD1]” it is 5.25.
Regarding EPGNPYSFSNTGSFI [ADAM30], the median enrichment stood at 0.267.
Turning to YEAPS [OR1L8], the median enrichment came to 1.07.
As to RELTCETSA [FOXP2], the median enrichment came out at 0.325.
With QELVGSLRTPVLLTPSF [TSNAXIP1], the median enrichment came out at 2.24.
For the substance “LPSTCPWGQEHPRPQKRERKGQKKEEKKNVQKDFRSSHSYF [TOB2]”, the median enrichment is 0.26.
The result for WPG [KDM8] reads 0.882; that for “EKPSRRKNSLSQFSKEPRILQRMCEDFPVLDGE [SAMD7]”, 1.53; that for “CSLHLGGGSLGKSTQTCTTVQQQGSLLPAVPPPPVYTT [SEZ6]”, 19.3.
Take “WWRDTRGLATLWGNWHQELLHLVSAQVDLRKGWIPVPEHQIPRQLMRLAQCVTEAPGSQQSRAYSAHQAEQATGRDDASGQGS [CCDC137]”: the median enrichment was 7.53.
Consider LKPERIVK [OR2A25], for which the median enrichment amounted to 0.737.
With KHGGFGS [AKAIN1], the median enrichment worked out at 0.558.
For the substance “WKTCSLSILPMKIHFTHPPPLLFCHVFPSLCIARFEVTDTHPKPCCSQSPILHILMGK [SYNJ2BP]”, the median enrichment amounted to 7.06.
Regarding “CSDGGWSLSESSALPSPGDEGNSLCFAEKILWINTEAPATPEGWRLLSLPILQSGSKPSKTAPEHCFSWVQS [C3orf52]”, the median enrichment came out at 13.3.
“LAPLGLEFATGRILQRQVVPGPLLHPFSRRPCQRLHPVVNLVWRQRLRGWTSIVGQGLTLQGFCSWLWTPENPLLPSPNTRFL [FAM110A]”: the median enrichment came out at 6.38.
On to RDSSP [CD1C], for which the median enrichment came to 0.413.
Consider LLHMQKDSAIYLKID [APBB2], for which the median enrichment was found to be 11.6.
The result for RBP1 reads 6.79; that for RRRRRRRR [Arg08], 1.49; that for WEDPPEE [IGF1], 1.04.
The result for RRRRRRRRRR [Arg10] reads 0.77; that for WETA [FAXDC2], 0.459.
Take RASVGG [MDFI]: the median enrichment was 9.54.
The result for “VAANTPASGLLVAAPGDTPAKPTRWRGPPWSLATLPASAQGPLPSPGHLLCRRHSSQKPLSQKRLVFKKSRFFAPEVSFRGRM [AP1M1]” reads 4.38; that for QNIYRVTKNKQSKKKTVY [LRRC4C], 31.9; that for SGGV [DHRS2], 0.226.
With “GHPQDTPMWLLDNPRAAKSCFSSLAPQVLQDRALKATPNEFSGFRLWLQPNRTHFEHPDCIFAFRKLE [C5orf46]”, the median enrichment was found to be 3.29.
Take RLEPV [TMEM87B]: the median enrichment came out at 0.479.
On to “SAQQSHHPASQAGGRSWGRGLSPVRLLLVKGQGPGQASSSVQVILASVVGGRESKTCSAVSSSGD [PIK3C2B]”, for which the median enrichment turned out to be 2.95.
The figure for YRRIYVLFKQEKVTLPMLSPLHNI [CDH10] is 8.74; for VSGIMRRPWGMN [Degron APPBP2] it is 10.2; for YTDYIGSFELTSDKGGKFRQHYDLINFIF [MSH6] it is 21.1.
Turning to RTCGRPF [CMTM1], the median enrichment is 6.49.
As for QKKPL [NFATC2], the median enrichment is 0.453.
As for KVCRSQ [KRTAP11-1], the median enrichment is 3.09.
Take “RGLLPLGPLTLSGWWTTKYNPVYNLKIYFTFVLLYLFIKG [SMAD4]”: the median enrichment was determined as 6.89.
For the substance “RALVPWQRDEKLQALSPAWAGSGARGCDSSRRVETLGWTGGGQRPAGGAPGMCPDMVNL [VAV1]”, the median enrichment was 1.76.
As to LTYFNYCIFISSFPNTNKIIL [DYNC2LI1], the median enrichment was found to be 8.97.
The result for “LPGPGFAPAPASGPPGSRCGGCGPRAGARRRRRRREGARPAGRNRSDSRQEPGTEPGTEQQVRPGPPRLGADSDALGGSRKGG [NKX6-2]” reads 6.82; that for “QGAGPWMVPVCLALGMAVEGTWQKQPHVLPCPRPGVDKTRGVFWSPPAELEASHCNFSAQGLLNRCERPVPRVSL [SLC6A13]”, 14.4.
In the case of QFLGLFEYSIPMGIYFLSCH [HHIP], the median enrichment is 13.7.
For WGTKPRRIPPQ [CA10], the median enrichment was 0.682.
As to “EIPQHGSLMFICCLSFLLSFPVCFQFSTSSAHPVLCPFVCVRTI [PCLO]”, the median enrichment amounted to 8.91.
For the substance “YVTTPRSSAFKTKRDWGSGEGEEEQEEKKYSELLQVTLIKNLL [NR5A2]”, the median enrichment is 8.46.
The figure for “RGAHGQDWWGLQDVRRVRCLALATLFLVGFCCCSCYFHL [PSMC3IP]” is 7.83.
The result for QYNF [PPP1R42] reads 0.505.
Take QNASVRIKD [BORA]: the median enrichment stood at 0.475.
With “LALLSRWGLPETVCFVSPTTITATWLLPCGRRVTG [SF3B3]”, the median enrichment was found to be 34.6.
